According to paper PMC6735679:
Where two headings read alike, the source gives them in different places.

Tests used:
CNBP [1] = target: T1, CNBP (Homo sapiens, UniProt P62633 1-177); test: EMSA
CNBP [2] = target: T1, CNBP; test: EMSA; remark: listed apart in the source

T1 sequence (P62633 whole entry): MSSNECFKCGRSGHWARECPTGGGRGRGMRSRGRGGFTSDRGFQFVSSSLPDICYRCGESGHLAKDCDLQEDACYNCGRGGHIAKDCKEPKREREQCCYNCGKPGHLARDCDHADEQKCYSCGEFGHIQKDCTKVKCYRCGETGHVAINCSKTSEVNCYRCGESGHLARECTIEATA

## GAGGGGGAGGGGGG (ssDNA) [C14]
CNBP [1]
  binding result: binds

## TGGGGT (ssDNA) [TG4T (single strand)]
CNBP [2]
  binding result: no binding
